Data reported in patent US20180273587A1 (AILERON THERAPEUTICS, published 2018).
Starred links: 1 amine or outer side, 2 acyl side, 3 side chain; linkers in the order of their positions; H or OH if unused. Positions of bridges follow the written chain, without caps; N, C: chain ends. Non-standard residues stand in square brackets, D forms with d. Phe(4-CF3) = N[C@@H](Cc1ccc(C(F)(F)F)cc1)C(=O)O; Phe(4-tBu) = CC(C)(C)c1ccc(C[C@H](N)C(=O)O)cc1; hhL = hhLeu, CC(C)CCC[C@H](N[*:1])C(=O)[*:2]; 2Nal = N[C@@H](Cc1ccc2ccccc2c1)C(=O)O; Igl = N[C@H](C(=O)O)C1Cc2ccccc2C1; tBuAla = CC(C)(C)C[C@H](N)C(=O)O; R8 = C=CCCCCCC[C@@](C)(N)C(=O)O; Cha = N[C@@H](CC1CCCCC1)C(=O)O; αMeL = CC(C)C[C@](C)(N)C(=O)O; Cba = N[C@@H](CC1CCC1)C(=O)O; hLeu = CC(C)CC[C@H](N)C(=O)O; S5 = C=CCCC[C@](C)(N)C(=O)O

Tests used:
Assay in all cases: Ki table, method not stated
BCL-2 = BCL-2 (UniProt P10415 1-217, limits assumed)
BCL-XL = BCL-XL (UniProt Q07817 1-209)
MCL-1 = target: T1, MCL-1 (UniProt Q07820 172-327, limits assumed)
T1 construct: also called Myeloid cell leukemia 1
T1 sequence (Q07820 172-327 limits assumed): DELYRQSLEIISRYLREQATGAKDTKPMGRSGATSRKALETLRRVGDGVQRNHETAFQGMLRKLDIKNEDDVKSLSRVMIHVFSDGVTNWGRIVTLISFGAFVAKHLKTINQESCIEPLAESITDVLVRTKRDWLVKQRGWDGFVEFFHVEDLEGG

BCL-2, sequence (P10415 1-217 limits assumed): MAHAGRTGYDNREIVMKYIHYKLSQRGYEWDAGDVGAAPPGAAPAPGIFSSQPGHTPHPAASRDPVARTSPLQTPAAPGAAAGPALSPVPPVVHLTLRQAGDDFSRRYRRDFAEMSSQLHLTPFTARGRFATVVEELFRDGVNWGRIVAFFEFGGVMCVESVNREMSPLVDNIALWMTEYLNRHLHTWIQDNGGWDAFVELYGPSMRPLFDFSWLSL
BCL-XL, sequence (Q07817 1-209): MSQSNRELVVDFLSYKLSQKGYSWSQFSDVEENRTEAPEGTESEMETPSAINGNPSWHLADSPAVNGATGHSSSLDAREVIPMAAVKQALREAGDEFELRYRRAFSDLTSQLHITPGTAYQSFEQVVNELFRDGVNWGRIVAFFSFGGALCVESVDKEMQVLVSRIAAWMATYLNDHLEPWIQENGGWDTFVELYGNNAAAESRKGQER

Binder	Ki (BCL-2)	Ki (BCL-XL)	Ki (MCL-1)
Ac-IW[Igl]AQALR[R8]IGDAFN[S5]YYA-NH2 (staple 9-16; SMILES CC[C@H](C)[C@H](NC(C)=O)C(=O)N[C@@H](Cc1c[nH]c2ccccc12)C(=O)N[C@H](C(=O)N[C@@H](C)C(=O)N[C@@H](CCC(N)=O)C(=O)N[C@@H](C)C(=O)N[C@@H](CC(C)C)C(=O)N[C@@H](CCCNC(=N)N)C(=O)N[C@]1(C)CCCCCCC=CCCC[C@@](C)(C(=O)N[C@@H](Cc2ccc(O)cc2)C(=O)N[C@@H](Cc2ccc(O)cc2)C(=O)N[C@@H](C)C(N)=O)NC(=O)[C@H](CC(N)=O)NC(=O)[C@H](Cc2ccccc2)NC(=O)[C@H](C)NC(=O)[C@H](CC(=O)O)NC(=O)CNC(=O)[C@H]([C@@H](C)CC)NC1=O)C1Cc2ccccc2C1, also called Ac-IWIglAQALR$r8IGDAFN$YYA-NH2) [SEQ ID NO: 1682]	246 nM	146 nM	12.8 nM
Ac-IW[Phe(4-CF3)]AQALR[R8]IGDAFN[S5]YYA-NH2 (staple 9-16; SMILES CC[C@H](C)[C@H](NC(C)=O)C(=O)N[C@@H](Cc1c[nH]c2ccccc12)C(=O)N[C@@H](Cc1ccc(C(F)(F)F)cc1)C(=O)N[C@@H](C)C(=O)N[C@@H](CCC(N)=O)C(=O)N[C@@H](C)C(=O)N[C@@H](CC(C)C)C(=O)N[C@@H](CCCNC(=N)N)C(=O)N[C@]1(C)CCCCCCC=CCCC[C@@](C)(C(=O)N[C@@H](Cc2ccc(O)cc2)C(=O)N[C@@H](Cc2ccc(O)cc2)C(=O)N[C@@H](C)C(N)=O)NC(=O)[C@H](CC(N)=O)NC(=O)[C@H](Cc2ccccc2)NC(=O)[C@H](C)NC(=O)[C@H](CC(=O)O)NC(=O)CNC(=O)[C@H]([C@@H](C)CC)NC1=O, also called Ac-IWF4CF3AQALR$r8IGDAFN$YYA-NH2) [SEQ ID NO: 1683]	237 nM	9.1 nM	76.7 nM
Ac-IW[2Nal]AQALR[R8]IGDAFN[S5]YYA-NH2 (staple 9-16; SMILES CC[C@H](C)[C@H](NC(C)=O)C(=O)N[C@@H](Cc1c[nH]c2ccccc12)C(=O)N[C@@H](Cc1ccc2ccccc2c1)C(=O)N[C@@H](C)C(=O)N[C@@H](CCC(N)=O)C(=O)N[C@@H](C)C(=O)N[C@@H](CC(C)C)C(=O)N[C@@H](CCCNC(=N)N)C(=O)N[C@]1(C)CCCCCCC=CCCC[C@@](C)(C(=O)N[C@@H](Cc2ccc(O)cc2)C(=O)N[C@@H](Cc2ccc(O)cc2)C(=O)N[C@@H](C)C(N)=O)NC(=O)[C@H](CC(N)=O)NC(=O)[C@H](Cc2ccccc2)NC(=O)[C@H](C)NC(=O)[C@H](CC(=O)O)NC(=O)CNC(=O)[C@H]([C@@H](C)CC)NC1=O, also called Ac-IW2NalAQALR$r8IGDAFN$YYA-NH2) [SEQ ID NO: 1685]	265 nM	151 nM	163 nM
Ac-IWIAQA[Phe(4-tBu)]R[R8]IGDAFN[S5]YYA-NH2 (staple 9-16; SMILES CC[C@H](C)[C@H](NC(C)=O)C(=O)N[C@@H](Cc1c[nH]c2ccccc12)C(=O)N[C@H](C(=O)N[C@@H](C)C(=O)N[C@@H](CCC(N)=O)C(=O)N[C@@H](C)C(=O)N[C@@H](Cc1ccc(C(C)(C)C)cc1)C(=O)N[C@@H](CCCNC(=N)N)C(=O)N[C@]1(C)CCCCCCC=CCCC[C@@](C)(C(=O)N[C@@H](Cc2ccc(O)cc2)C(=O)N[C@@H](Cc2ccc(O)cc2)C(=O)N[C@@H](C)C(N)=O)NC(=O)[C@H](CC(N)=O)NC(=O)[C@H](Cc2ccccc2)NC(=O)[C@H](C)NC(=O)[C@H](CC(=O)O)NC(=O)CNC(=O)[C@H]([C@@H](C)CC)NC1=O)[C@@H](C)CC, also called Ac-IWIAQAF4tBuR$r8IGDAFN$YYA-NH2) [SEQ ID NO: 1695]	288 nM	12.7 nM	169 nM
Ac-IWIAQA[2Nal]R[R8]IGDAFN[S5]YYA-NH2 (staple 9-16; SMILES CC[C@H](C)[C@H](NC(C)=O)C(=O)N[C@@H](Cc1c[nH]c2ccccc12)C(=O)N[C@H](C(=O)N[C@@H](C)C(=O)N[C@@H](CCC(N)=O)C(=O)N[C@@H](C)C(=O)N[C@@H](Cc1ccc2ccccc2c1)C(=O)N[C@@H](CCCNC(=N)N)C(=O)N[C@]1(C)CCCCCCC=CCCC[C@@](C)(C(=O)N[C@@H](Cc2ccc(O)cc2)C(=O)N[C@@H](Cc2ccc(O)cc2)C(=O)N[C@@H](C)C(N)=O)NC(=O)[C@H](CC(N)=O)NC(=O)[C@H](Cc2ccccc2)NC(=O)[C@H](C)NC(=O)[C@H](CC(=O)O)NC(=O)CNC(=O)[C@H]([C@@H](C)CC)NC1=O)[C@@H](C)CC, also called Ac-IWIAQA2NalR$r8IGDAFN$YYA-NH2) [SEQ ID NO: 1696]	234 nM	17.3 nM	120 nM
Ac-IWIAQALR[R8][Cba]GDAFN[S5]YYA-NH2 (staple 9-16; SMILES CC[C@H](C)[C@H](NC(C)=O)C(=O)N[C@@H](Cc1c[nH]c2ccccc12)C(=O)N[C@H](C(=O)N[C@@H](C)C(=O)N[C@@H](CCC(N)=O)C(=O)N[C@@H](C)C(=O)N[C@@H](CC(C)C)C(=O)N[C@@H](CCCNC(=N)N)C(=O)N[C@]1(C)CCCCCCC=CCCC[C@@](C)(C(=O)N[C@@H](Cc2ccc(O)cc2)C(=O)N[C@@H](Cc2ccc(O)cc2)C(=O)N[C@@H](C)C(N)=O)NC(=O)[C@H](CC(N)=O)NC(=O)[C@H](Cc2ccccc2)NC(=O)[C@H](C)NC(=O)[C@H](CC(=O)O)NC(=O)CNC(=O)[C@H](CC2CCC2)NC1=O)[C@@H](C)CC) [SEQ ID NO: 1698]	89 nM	27.5 nM	26.6 nM
Ac-IWIAQALR[R8][hLeu]GDAFN[S5]YYA-NH2 (staple 9-16; SMILES CC[C@H](C)[C@H](NC(C)=O)C(=O)N[C@@H](Cc1c[nH]c2ccccc12)C(=O)N[C@H](C(=O)N[C@@H](C)C(=O)N[C@@H](CCC(N)=O)C(=O)N[C@@H](C)C(=O)N[C@@H](CC(C)C)C(=O)N[C@@H](CCCNC(=N)N)C(=O)N[C@]1(C)CCCCCCC=CCCC[C@@](C)(C(=O)N[C@@H](Cc2ccc(O)cc2)C(=O)N[C@@H](Cc2ccc(O)cc2)C(=O)N[C@@H](C)C(N)=O)NC(=O)[C@H](CC(N)=O)NC(=O)[C@H](Cc2ccccc2)NC(=O)[C@H](C)NC(=O)[C@H](CC(=O)O)NC(=O)CNC(=O)[C@H](CCC(C)C)NC1=O)[C@@H](C)CC) [SEQ ID NO: 1699]	12.7 nM	6 nM	13 nM
Ac-IWIAQALR[R8][Cha]GDAFN[S5]YYA-NH2 (staple 9-16; SMILES CC[C@H](C)[C@H](NC(C)=O)C(=O)N[C@@H](Cc1c[nH]c2ccccc12)C(=O)N[C@H](C(=O)N[C@@H](C)C(=O)N[C@@H](CCC(N)=O)C(=O)N[C@@H](C)C(=O)N[C@@H](CC(C)C)C(=O)N[C@@H](CCCNC(=N)N)C(=O)N[C@]1(C)CCCCCCC=CCCC[C@@](C)(C(=O)N[C@@H](Cc2ccc(O)cc2)C(=O)N[C@@H](Cc2ccc(O)cc2)C(=O)N[C@@H](C)C(N)=O)NC(=O)[C@H](CC(N)=O)NC(=O)[C@H](Cc2ccccc2)NC(=O)[C@H](C)NC(=O)[C@H](CC(=O)O)NC(=O)CNC(=O)[C@H](CC2CCCCC2)NC1=O)[C@@H](C)CC) [SEQ ID NO: 1700]	109 nM	7.1 nM	15.9 nM
Ac-IWIAQALR[R8][tBuAla]GDAFN[S5]YYA-NH2 (staple 9-16; SMILES CC[C@H](C)[C@H](NC(C)=O)C(=O)N[C@@H](Cc1c[nH]c2ccccc12)C(=O)N[C@H](C(=O)N[C@@H](C)C(=O)N[C@@H](CCC(N)=O)C(=O)N[C@@H](C)C(=O)N[C@@H](CC(C)C)C(=O)N[C@@H](CCCNC(=N)N)C(=O)N[C@]1(C)CCCCCCC=CCCC[C@@](C)(C(=O)N[C@@H](Cc2ccc(O)cc2)C(=O)N[C@@H](Cc2ccc(O)cc2)C(=O)N[C@@H](C)C(N)=O)NC(=O)[C@H](CC(N)=O)NC(=O)[C@H](Cc2ccccc2)NC(=O)[C@H](C)NC(=O)[C@H](CC(=O)O)NC(=O)CNC(=O)[C@H](CC(C)(C)C)NC1=O)[C@@H](C)CC) [SEQ ID NO: 1701]	227 nM	35.4 nM	13.7 nM
Ac-IWIAQALR[R8][hhL]GDAFN[S5]YYA-NH2 (staple 9-16; SMILES CC[C@H](C)[C@H](NC(C)=O)C(=O)N[C@@H](Cc1c[nH]c2ccccc12)C(=O)N[C@H](C(=O)N[C@@H](C)C(=O)N[C@@H](CCC(N)=O)C(=O)N[C@@H](C)C(=O)N[C@@H](CC(C)C)C(=O)N[C@@H](CCCNC(=N)N)C(=O)N[C@]1(C)CCCCCCC=CCCC[C@@](C)(C(=O)N[C@@H](Cc2ccc(O)cc2)C(=O)N[C@@H](Cc2ccc(O)cc2)C(=O)N[C@@H](C)C(N)=O)NC(=O)[C@H](CC(N)=O)NC(=O)[C@H](Cc2ccccc2)NC(=O)[C@H](C)NC(=O)[C@H](CC(=O)O)NC(=O)CNC(=O)[C@H](CCCC(C)C)NC1=O)[C@@H](C)CC) [SEQ ID NO: 1702]	23.1 nM	4 nM	34.6 nM
Ac-[αMeL]WIAQALR[R8]IGDAFN[S5]YYA-NH2 (staple 9-16; SMILES CC[C@H](C)[C@H](NC(=O)[C@H](Cc1c[nH]c2ccccc12)NC(=O)[C@](C)(CC(C)C)NC(C)=O)C(=O)N[C@@H](C)C(=O)N[C@@H](CCC(N)=O)C(=O)N[C@@H](C)C(=O)N[C@@H](CC(C)C)C(=O)N[C@@H](CCCNC(=N)N)C(=O)N[C@]1(C)CCCCCCC=CCCC[C@@](C)(C(=O)N[C@@H](Cc2ccc(O)cc2)C(=O)N[C@@H](Cc2ccc(O)cc2)C(=O)N[C@@H](C)C(N)=O)NC(=O)[C@H](CC(N)=O)NC(=O)[C@H](Cc2ccccc2)NC(=O)[C@H](C)NC(=O)[C@H](CC(=O)O)NC(=O)CNC(=O)[C@H]([C@@H](C)CC)NC1=O) [SEQ ID NO: 1705]	48.3 nM	8.4 nM	5.2 nM
